Assay results reported in patent US20220380421A1 (University of California, published 2022).

Assays:
[1] = target: T1, Myc-tagged SpyCas9-sgRNA (Streptococcus pyogenes, UniProt Q99ZW2 1-1368); experiment: discussion of the co-immunoprecipitation results; state of SpyCas9 not named there
T1 construct: not shown: 3xMyc tag at the C-terminus

[2] = target: T2, Myc-tagged Apo-SpyCas9 (Streptococcus pyogenes, UniProt Q99ZW2 1-1368); experiment: GST-Acr immunoprecipitation from P. aeruginosa expressing Myc-tagged Apo-SpyCas9 without sgRNA; immunoblot (FIGS. 3D, 7C)
T2 construct: not shown: 3xMyc tag at the C-terminus

[3] = target: T1, Myc-tagged SpyCas9-sgRNA; experiment: co-immunoprecipitation of Myc-tagged SpyCas9-sgRNA from P. aeruginosa co-expressing GST-Acr; immunoblot and Coomassie gel (FIG. 3B)

T1 sequence (Q99ZW2 whole entry): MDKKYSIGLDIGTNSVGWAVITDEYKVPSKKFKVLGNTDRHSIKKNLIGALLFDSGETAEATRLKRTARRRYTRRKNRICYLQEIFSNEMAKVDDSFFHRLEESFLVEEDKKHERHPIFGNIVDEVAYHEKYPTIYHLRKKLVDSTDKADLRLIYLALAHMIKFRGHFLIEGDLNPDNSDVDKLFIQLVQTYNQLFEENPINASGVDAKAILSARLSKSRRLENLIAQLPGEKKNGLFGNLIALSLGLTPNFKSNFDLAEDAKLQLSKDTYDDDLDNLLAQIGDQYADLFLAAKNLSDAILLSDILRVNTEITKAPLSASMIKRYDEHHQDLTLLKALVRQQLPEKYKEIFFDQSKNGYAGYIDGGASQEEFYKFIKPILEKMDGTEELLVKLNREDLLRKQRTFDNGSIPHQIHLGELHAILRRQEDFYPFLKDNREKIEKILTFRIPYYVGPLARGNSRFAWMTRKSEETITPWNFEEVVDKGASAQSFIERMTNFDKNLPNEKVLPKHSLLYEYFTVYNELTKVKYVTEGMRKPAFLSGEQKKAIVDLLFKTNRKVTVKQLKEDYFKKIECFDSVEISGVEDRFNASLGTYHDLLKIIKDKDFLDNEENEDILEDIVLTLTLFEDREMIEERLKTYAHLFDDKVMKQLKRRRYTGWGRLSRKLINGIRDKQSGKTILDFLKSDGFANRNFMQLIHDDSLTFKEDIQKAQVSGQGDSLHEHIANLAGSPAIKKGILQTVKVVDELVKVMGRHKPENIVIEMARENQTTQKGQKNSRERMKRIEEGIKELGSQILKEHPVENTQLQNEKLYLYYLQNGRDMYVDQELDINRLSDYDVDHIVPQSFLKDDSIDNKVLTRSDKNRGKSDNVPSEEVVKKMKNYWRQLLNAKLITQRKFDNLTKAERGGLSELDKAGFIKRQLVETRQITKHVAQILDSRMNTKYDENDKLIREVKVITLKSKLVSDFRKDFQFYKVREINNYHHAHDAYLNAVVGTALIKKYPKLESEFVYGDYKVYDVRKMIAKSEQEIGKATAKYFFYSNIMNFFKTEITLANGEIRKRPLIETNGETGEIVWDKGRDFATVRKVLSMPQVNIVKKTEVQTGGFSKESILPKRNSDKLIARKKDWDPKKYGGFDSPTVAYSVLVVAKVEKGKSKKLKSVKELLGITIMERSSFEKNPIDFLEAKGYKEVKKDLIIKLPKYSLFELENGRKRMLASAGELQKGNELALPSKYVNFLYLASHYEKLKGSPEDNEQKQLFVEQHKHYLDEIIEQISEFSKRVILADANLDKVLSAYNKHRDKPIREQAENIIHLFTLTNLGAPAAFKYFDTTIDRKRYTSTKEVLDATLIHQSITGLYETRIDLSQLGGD
T2 sequence (Q99ZW2 whole entry): as above

Binder | binding result [1] | binding result [2] | binding result [3]
GST-AcrIIA19_Ssim (other) MKLIVEVEETNYKNLVNYTKLTNESHNILVNRLISEYITKPYELRLDLSERYSNRDLIEFKFMLIEYCKEALQDIKELANSDEAYETDEAFEAVFRQLFEEVISNPDTVLKAFHSYTSFLEENK | binds | binds | –
GST-AcrIIA17_Sga (other, also called GST-AcrIIA7_Sga) MKISVDSEKLLNEAINDFDIFGEDFNVYAIYSYREDYDFEYISDYVDADEPTRDEFETEEDYQEVMKDFKENLDSLKFTKHKKMTIADLVHELWEQNRIF | binds | binds | –
GST-AcrIIA16_Lmo (other) MGYIGTKRSERSQDAIEDYEVPLNHFNKDLIQAFIDENEAYDTLKTKKVRLWKFVAPRAGATSWHHTGTYYNKTDHYSLEKVADELLQNGDEWEEQFKAYVKEEQETATSEPVFLSVIKVQIWGGSMKRPKLVGHEVVMGVKKEGWLHAVSKATQSKYKLSANKVEMQKHYSLEDYSALTKDFPEFKAQKRAINKKMKEMYN | – | binds | binds
